According to US20240083996A1, “COMPOSITION FOR PROPHYLAXIS OR TREATMENT OF IL-8 RELATED DISEASES” (Chugai Seiyaku Kabushiki Kaisha, priority 2016, published 2024):

Key:
[1] = test system: soluble forms of FcγRIa and FcγRIIIa in human and cynomolgus monkey; assay: Binding to various FcγRs (BIACORE T200); details: 20° C., HBS-EP+ (FIG. 27)
Protocol: Soluble FcγRIa and FcγRIIIa in both human and cynomolgus monkey were produced in the form of His-tagged molecules by methods known to those of ordinary skill in the art. […] Next, soluble FcγRIa or FcγRIIIa was injected with a running buffer (used as a reference solution), and was made to interact with the antibodies captured onto the sensor chip. HBS-EP+ (GE Healthcare) was used as the running buffer, and HBS-EP+ was also used to dilute the soluble FcγRIa or FcγRIIIa. […] All measurements were carried out at 20° C.

post-surgical adhesion = assay: Adhesion after surgery (area surrounding the incision site) in surgically-induced endometriosis monkey models; assay type: in vivo, cynomolgus monkeys; details: 10 mg/kg; two months before versus six months after initiation of administration, five evaluators
Protocol: Specifically, adhesion to the area surrounding the incision site on the abdominal wall was compared before and after administration and evaluated by five evaluators on a three-point scale: (1) Improved, (2) Stable, and (3) Progressed. Ratings with a consensus among three or more of the five evaluators were adopted; otherwise (2) Stable was used. Evaluations were carried out on six monkeys in the vehicle group as well as seven monkeys in the antibody […]/[…]-[…] administration group. […] The monkey with “Progressed” was an individual in which the blood concentration of antibody […]/[…]-[…] had decreased due to anti-antibody production.

- binding to FcγRs (hFcγRIa, hFcγRIIIa, cynoFcγRIa, cynoFcγRIIIa) [1]: not to bind to any of the FcγRs
B1: H1009/L395-F1974m: H1009-F1974m (SEQ ID NO:36) heavy chain, L395-kOMT light chain; the anti-IL-8 antibody of Table 29 (antibody)
heavy: QVQLVESGGGLVQPGGSLRLSCAASGFTFSDYYLSWVRQAPGKGLEWVGLIRNKDNYHTPEYSASVKGRFTISRDDSKNSLYLTMSDLKTEDTAVYYCARENHRYDVELAYWGQGTLVTVSSASTKGPSVFPLAPSSKSTSGGTAALGCLVKDYFPEPVTVSWNSGALTSGVHTFPAVLQSSGLYSLSSVVTVPSSSLGTQTYICNVNHKPSNTKVDKKVEPKSCDKTHTCPPCPAPELRRGPSVFLFPPKPKDTLMISRTPEVTCVVVDVSHEDPEVKFNWYVDGVEVHNAKTKPREEQYNSTYRVVSVLTVLHQDWLNGKEYKCKVSNKGLPSSIEKTISKAKGQPREPQVYTLPPSREEMTKNQVSLTCLVKGFYPSDIAVEWESNGQPENNYKTTPPVLDSDGSFFLYSKLTVDKSRWQQGNVFSCSVLHEALHAHTTRKELSLSP
light: DIQMTQSPSSLSASVGDRVTITCRASEIIYSYLAWYQQKPGKAPKLLIYKAKTHADGVPSRFSGSGSGTDFTFTISSLQPEDIATYYCKHHFGFPRTFGQGTKVEIKRTVAAPSVFIFPPSDEQLKSGTASVVCLLNNFYPREAKVQWKVDNALQSGNSQESVTEQDSKDSTYSLSSTLTLSKADYEKHKVYACEVTHQGLSSPVTKSFNRGEC
- adhesion to the area surrounding the incision site: Improved (monkeys/group) (post-surgical adhesion): 6/7
- adhesion to the area surrounding the incision site: Progressed (monkeys/group) (post-surgical adhesion): 1/7
- adhesion to the area surrounding the incision site: Stable (monkeys/group) (post-surgical adhesion): 0/7
